Measured values taken from IntAct's records for PubMed 17347647.

B1: Rho GTPase-activating protein 21 (Homo sapiens), Q5T5U3 (parent)
chain: MMATRRTGLSEGDGDKLKACEVSKNKDGKEQSETVSLSEDETFSWPGPKTVTLKRTSQGFGFTLRHFIVYPPESAIQFSYKDEENGNRGGKQRNRLEPMDTIFVKQVKEGGPAFEAGLCTGDRIIKVNGESVIGKTYSQVIALIQNSDTTLELSVMPKDEDILQVLQFTKDVTALAYSQDAYLKGNEAYSGNARNIPEPPPICYPWLPSAPSAMAQPVEISPPDSSLSKQQTSTPVLTQPGRAYRMEIQVPPSPTDVAKSNTAVCVCNESVRTVIVPSEKVVDLLSNRNNHTGPSHRTEEVRYGVSEQTSLKTVSRTTSPPLSIPTTHLIHQPAGSRSLEPSGILLKSGNYSGHSDGISSSRSQAVEAPSVSVNHYSPNSHQHIDWKNYKTYKEYIDNRRLHIGCRTIQERLDSLRAASQSTTDYNQVVPNRTTLQGRRRSTSHDRVPQSVQIRQRSVSQERLEDSVLMKYCPRSASQGALTSPSVSFSNHRTRSWDYIEGQDETLENVNSGTPIPDSNGEKKQTYKWSGFTEQDDRRGICERPRQQEIHKSFRGSNFTVAPSVVNSDNRRMSGRGVGSVSQFKKIPPDLKTLQSNRNFQTTCGMSLPRGISQDRSPLVKVRSNSLKAPSTHVTKPSFSQKSFVSIKDQRPVNHLHQNSLLNQQTWVRTDSAPDQQVETGKSPSLSGASAKPAPQSSENAGTSDLELPVSQRNQDLSLQEAETEQSDTLDNKEAVILREKPPSGRQTPQPLRHQSYILAVNDQETGSDTTCWLPNDARREVHIKRMEERKASSTSPPGDSLASIPFIDEPTSPSIDHDIAHIPASAVISASTSQVPSIATVPPCLTTSAPLIRRQLSHDHESVGPPSLDAQPNSKTERSKSYDEGLDDYREDAKLSFKHVSSLKGIKIADSQKSSEDSGSRKDSSSEVFSDAAKEGWLHFRPLVTDKGKRVGGSIRPWKQMYVVLRGHSLYLYKDKREQTTPSEEEQPISVNACLIDISYSETKRKNVFRLTTSDCECLFQAEDRDDMLAWIKTIQESSNLNEEDTGVTNRDLISRRIKEYNNLMSKAEQLPKTPRQSLSIRQTLLGAKSEPKTQSPHSPKEESERKLLSKDDTSPPKDKGTWRKGIPSIMRKTFEKKPTATGTFGVRLDDCPPAHTNRYIPLIVDICCKLVEERGLEYTGIYRVPGNNAAISSMQEELNKGMADIDIQDDKWRDLNVISSLLKSFFRKLPEPLFTNDKYADFIEANRKEDPLDRLKTLKRLIHDLPEHHYETLKFLSAHLKTVAENSEKNKMEPRNLAIVFGPTLVRTSEDNMTHMVTHMPDQYKIVETLIQHHDWFFTEEGAEEPLTTVQEESTVDSQPVPNIDHLLTNIGRTGVSPGDVSDSATSDSTKSKGSWGSGKDQYSRELLVSSIFAAASRKRKKPKEKAQPSSSEDELDNVFFKKENVEQCHNDTKEESKKESETLGRKQKIIIAKENSTRKDPSTTKDEKISLGKESTPSEEPSPPHNSKHNKSPTLSCRFAILKESPRSLLAQKSSHLEETGSDSGTLLSTSSQASLARFSMKKSTSPETKHSEFLANVSTITSDYSTTSSATYLTSLDSSRLSPEVQSVAESKGDEADDERSELISEGRPVETDSESEFPVFPTALTSERLFRGKLQEVTKSSRRNSEGSELSCTEGSLTSSLDSRRQLFSSHKLIECDTLSRKKSARFKSDSGSLGDAKNEKEAPSLTKVFDVMKKGKSTGSLLTPTRGESEKQEPTWKTKIADRLKLRPRAPADDMFGVGNHKVNAETAKRKSIRRRHTLGGHRDATEISVLNFWKVHEQSGERESELSAVNRLKPKCSAQDLSISDWLARERLRTSTSDLSRGEIGDPQTENPSTREIATTDTPLSLHCNTGSSSSTLASTNRPLLSIPPQSPDQINGESFQNVSKNASSAANAQPHKLSETPGSKAEFHPCL

Variants of: B1
Conditions: with arf1_mouse Arf1, P84078
Chain of arf1_mouse Arf1, P84078 (P84078 whole entry): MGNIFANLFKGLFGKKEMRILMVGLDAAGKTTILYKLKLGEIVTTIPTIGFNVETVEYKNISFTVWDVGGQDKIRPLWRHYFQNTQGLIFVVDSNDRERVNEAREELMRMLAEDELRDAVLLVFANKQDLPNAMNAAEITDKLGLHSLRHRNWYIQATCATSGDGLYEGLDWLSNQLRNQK

Variant | effect of a mutation on the interaction
Y1000A | decreasing interaction

Variants of: B1
Conditions: with arf1_mouse Arf1, P84078
Remark: another data set of the same source

Variant | effect of a mutation on the interaction
I1054A | decreasing interaction
